Test results from publication PMC9354549, “SARS-CoV-2 Nucleocapsid Protein Has DNA-Melting and Strand-Annealing Activities With Different Properties From SARS-CoV-2 Nsp13”.

Experiments:
[1] = target: SARS-CoV-2 nucleocapsid protein (CoV-2 N) (SARS-CoV-2 (2019-nCoV), UniProt P0DTC9 1-419); assay: fluorescence anisotropy; 300 mM NaCl; 5 nM DNA; Kd was fitted but its value is only in Figure 7A; Fluorescence anisotropy, 50 mM Tris-HCl pH 7.0 with 300 mM NaCl (N) or 20 mM NaCl (Nsp13); 5 min equilibration, second reading after 10 min; temperature not stated; conditions: protein: recombinant; chain copies: 2; label: 3'-FAM (fluorescein); single strand, 43 nt
[2] = target: SARS-CoV-2 nonstructural protein 13 (CoV-2 Nsp13) (SARS-CoV-2, UniProt P0DTD1 5325-5925); assay: fluorescence anisotropy; Fluorescence anisotropy, 50 mM Tris-HCl pH 7.0 with 300 mM NaCl ([…]) or 20 mM NaCl ([…]; temperature not stated; conditions: protein: recombinant; tags: 6xHis-SUMO, removed with SUMO protease; label: 3'-FAM (fluorescein); single strand, 43 nt

CTGTAGGAATGTGAAATAAAAACGATGTTTTATTTACATTGTA (ssDNA) [S43]: binds [1]; binds [2].
